Biological target: human thrombin (human, UniProt P00734 328-622)
Test: equilibrium titration of thrombin (20 nM) with thrombomodulin in solution, read by the change in fluorescence of the thrombin inhibitor DAPA, fitted by nonlinear regression
Procedure: A solution containing thrombin (20 nM), thrombomodulin (1.54 μM), and DAPA (20 nM, dansylarginine N-3-(ethyl-1,5-pentanediyl)amide, a fluorescent, reversible thrombin inhibitor) in 0.02 M Tris-HCl, 0.15 M NaCl, 5.0 mM CaCl₂, 0.01% Tween 80, pH 7.4, was added in small successive aliquots to an otherwise identical solution that lacked thrombomodulin. The additions were performed in a cuvette fitted with a magnetic stirrer in the sample compartment of a Perkin-Elmer model LS50B spectrofluorimeter. Intensity values were continuously recorded with excitation and emission wavelengths of 280 and 545 nm, respectively. A 430-nm cut-off filter was used in the emission beam. The intensity of fluorescence, I, was assumed to be the sum of intensities from thrombin-DAPA (T·D) and thrombin-thrombomodulin-DAPA (T·TM·D). That is, I=i₁·[T·D]+i₂·[T·TM·D], where i₁ and i₂ are the coefficients of fluorescence for T·D and T·TM·D (since excitation was at 280 nm, the emission from free DAPA was negligible).
Therefore, with KTM defined as the dissociation constant for the thrombin-thrombomodulin interaction, [T][TM]=KTM[T·TM]; [T·D][TM]=KTM[T·TM·D]; and ([T]+[T·D])·[TM]=KTM([T·TM]+[T·TM·D]). The last expression is identical to f·[TM]=KTM·b. Since f=1−b and [TM]=[TM]₀−b[T]₀, where [TM]₀ is the total thrombomodulin concentration, the following equation is obtained: (1−b)([TM]₀−b·[T]₀)=KTM·b. […]

- Kd: 23 nM
B1: Solulin (recombinant human soluble thrombomodulin) (receptor)
chain: EPQPGGSQCVEHDCFALYPGPATFLNASQICDGLRGHLMTVRSSVAADVISLLLNGDGGVGRRRLWIGLQLPPGCGDPKRLGPLRGFQWVTGDNNTSYSRWARLDLNGAPLCGPLCVAVSAAEATVPSEPIWEEQQCEVKADGFLCEFHFPATCRPLAVEPGAAAAAVSITYGTPFAARGADFQALPVGSSAAVAPLGLQLMCTAPPGAVQGHWAREAPGAWDCSVENGGCEHACNAIPGAPRCQCPAGAALQADGRSCTASATQSCNDLCEHFCVPNPDQPGSYSCMCETGYRLAADQHRCEDVDDCILEPSPCPQRCVNTQGGFECHCYPNYDLVDGECVEPVDPCFRANCEYQCQPLNQTSYLCVCAEGFAPIPHEPHRCQLFCNQTACPADCDPNTQASCECPEGYILDDGFICTDIDECENGGFCSGVCHNLPGTFECICGPDSALAGQIGTDCDSGKVDGGDSGAGEPPPSPTPGSTLTPP
notes: Obtained from PAION Deutschland GmbH; also called sTM; recombinant soluble thrombomodulin

— patent publication US20140256640A1 (PAION DEUTSCHLAND, published 2014)
